Laboratory results as given in PMC10766600 (2024).
“And” between values parts separate entries of the source, which are not always exact repeats. Identical values can stand only once.

B1: bacteriophage T5 capsid-like particles (T5 CLPs) (complex)
chain: AVNQSSSVEVSSESYETIFSQRIIRDLQKELVVGALFEELPMSSKILTMLVEPDAGKATWVAASTYGTDTTTGEEVKGALKEIHFSTYKLAAKSFITDETEEDAIFSLLPLLRKRLIEAHAVSIEEAFMTGDGSGKPKGLLTLASEDSAKVVTEAKADGSVLVTAKTISKLRRKLGRHGLKLSKLVLIVSMDAYYDLLEDEEWQDVAQVGNDSVKLQGQVGRIYGLPVVVSEYFPAKANSAEFAVIVYKDNFVMPRQRAVTVERERQAGKQRDAYYVTQRVNLQRYFANGVVSGTYAAS

Legend:
Assay in all cases: SPR
[1] = molecular target: B1
[2] = molecular target: pmC: full-length pb10 fused at its C-terminal end with mCherry (bacteriophage T5 | , UniProt Q6QGD6 1-164)
[3] = molecular target: pNmC: N-terminal capsid-binding domain pN of pb10 fused at its C-terminal end with mCherry (bacteriophage T5 | , UniProt Q6QGD6 1-73)
[4] = molecular target: pNO: N-terminal capsid-binding domain pN of pb10 fused at its C-terminal end with ovalbumin (bacteriophage T5 | , UniProt Q6QGD6 1-73)
[5] = molecular target: pO: full-length pb10 fused at its C-terminal end with ovalbumin (bacteriophage T5 | , UniProt Q6QGD6 1-164)

| Binder | koff [1] | Kd [2] | koff [2] | Kd [3] | koff [3] | Kd [4] | koff [4] | Kd [5] | koff [5] |
| --- | --- | --- | --- | --- | --- | --- | --- | --- | --- |
| decoration protein pb10 of bacteriophage T5, full length (natural protein, DNA-free expanded capsid lacking pb10 (T5 dec deletion, stAmN5). Mature pb8 after removal of the scaffolding domain; limits from the UniProt chain feature, matching the 299 aa entity of PDB 6OMC/6OMA. Minor capsid components (portal) not included.) MIDYSGLRTIFGEKLPESHIFFATVAAHKYVPSYAFLRRELGLSSAHTNRKVWKKFVEAYGKAIPPAPPAPPLTLSKDLTASMSVEEGAALTLSVTATGGTGPYTYAWTKDGSPIPDASGATYTKPTAAAEDAGSYKVTVTDSKQVSKDSTTCAVTVNPTVPGG | 0.00019 s⁻¹ and 0.0003 s⁻¹ | – | – | – | – | – | – | – | – |
| B1 | – | 1.4 pM | 0.0002 s⁻¹ | 0.9 pM | 0.00011 s⁻¹ | 1.2 pM | 0.00023 s⁻¹ | 2.3 pM | 0.00035 s⁻¹ |
